Among the data in paper PMC2854379 are percent of total AKAP450 co-immunoprecipitated by CDK5RAP2 antibody values, retold here.

The target in the assay is CDK5RAP2 (human (endogenous in HeLa)) (UniProt Q96SN8). In words: co-IP.
Chain of UniProt Q96SN8 (Q96SN8 whole entry): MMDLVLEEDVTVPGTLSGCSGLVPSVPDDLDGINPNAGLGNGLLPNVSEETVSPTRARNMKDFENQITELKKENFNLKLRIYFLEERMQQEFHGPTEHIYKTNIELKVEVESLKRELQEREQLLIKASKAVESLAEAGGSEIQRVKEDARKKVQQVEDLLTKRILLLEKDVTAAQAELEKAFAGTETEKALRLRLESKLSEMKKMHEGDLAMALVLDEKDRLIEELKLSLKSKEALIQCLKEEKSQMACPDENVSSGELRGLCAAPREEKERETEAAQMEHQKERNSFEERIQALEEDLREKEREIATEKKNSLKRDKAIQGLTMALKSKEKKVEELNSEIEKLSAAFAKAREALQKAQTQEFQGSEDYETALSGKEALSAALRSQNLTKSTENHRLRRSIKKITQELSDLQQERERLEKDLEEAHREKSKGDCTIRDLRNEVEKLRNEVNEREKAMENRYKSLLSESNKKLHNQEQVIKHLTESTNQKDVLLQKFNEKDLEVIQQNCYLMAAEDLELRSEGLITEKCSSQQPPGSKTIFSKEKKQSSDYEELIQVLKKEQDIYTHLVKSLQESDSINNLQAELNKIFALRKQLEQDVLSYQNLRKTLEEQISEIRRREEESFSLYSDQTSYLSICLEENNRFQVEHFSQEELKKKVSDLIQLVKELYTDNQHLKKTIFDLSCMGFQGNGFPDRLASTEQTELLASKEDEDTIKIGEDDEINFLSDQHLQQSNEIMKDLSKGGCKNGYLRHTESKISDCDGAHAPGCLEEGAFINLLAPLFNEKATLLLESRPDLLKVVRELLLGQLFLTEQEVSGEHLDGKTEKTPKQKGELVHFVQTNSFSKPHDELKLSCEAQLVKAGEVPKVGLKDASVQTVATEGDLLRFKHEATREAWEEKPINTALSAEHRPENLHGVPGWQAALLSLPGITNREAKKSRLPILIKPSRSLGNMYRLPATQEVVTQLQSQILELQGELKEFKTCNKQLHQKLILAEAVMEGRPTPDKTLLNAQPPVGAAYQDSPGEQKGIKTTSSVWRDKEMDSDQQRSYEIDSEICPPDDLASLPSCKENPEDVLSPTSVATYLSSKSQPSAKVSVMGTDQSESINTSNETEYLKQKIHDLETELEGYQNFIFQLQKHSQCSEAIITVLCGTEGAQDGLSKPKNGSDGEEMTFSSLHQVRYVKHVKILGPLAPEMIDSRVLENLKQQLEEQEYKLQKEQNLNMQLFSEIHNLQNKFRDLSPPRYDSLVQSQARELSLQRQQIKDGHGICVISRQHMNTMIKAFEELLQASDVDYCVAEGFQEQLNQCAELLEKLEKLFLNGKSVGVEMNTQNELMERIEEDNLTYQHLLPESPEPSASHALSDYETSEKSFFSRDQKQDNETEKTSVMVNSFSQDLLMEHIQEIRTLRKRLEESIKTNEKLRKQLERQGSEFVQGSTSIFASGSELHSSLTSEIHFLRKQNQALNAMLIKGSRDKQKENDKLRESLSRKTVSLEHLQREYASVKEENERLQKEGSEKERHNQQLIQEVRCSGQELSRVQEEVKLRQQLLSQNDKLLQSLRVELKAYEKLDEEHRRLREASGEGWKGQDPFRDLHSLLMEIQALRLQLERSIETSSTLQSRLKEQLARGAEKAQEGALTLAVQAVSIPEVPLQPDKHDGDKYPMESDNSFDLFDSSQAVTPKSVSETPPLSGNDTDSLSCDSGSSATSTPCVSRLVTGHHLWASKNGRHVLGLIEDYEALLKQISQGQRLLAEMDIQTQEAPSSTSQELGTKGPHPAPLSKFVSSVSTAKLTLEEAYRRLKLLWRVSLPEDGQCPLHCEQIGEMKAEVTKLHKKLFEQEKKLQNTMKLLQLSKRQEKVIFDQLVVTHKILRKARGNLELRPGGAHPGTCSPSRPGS

For the substance AKAP450, Q99996 1-3907, the percent of total AKAP450 co-immunoprecipitated by CDK5RAP2 antibody is 40%.
